Among the data in PMC11417369, “DNA sequence and chromatin differentiate sequence-specific transcription factor binding in the human malaria parasite Plasmodium falciparum” are binding signal values, retold here.

T1: SIP2 D1 (Plasmodium falciparum, UniProt C6KSN9 177-235)
T1 sequence: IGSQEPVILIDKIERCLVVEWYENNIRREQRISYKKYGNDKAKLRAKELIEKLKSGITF

B1: GTGCAC_site9532 (dsDNA)
DNA 1: ATATATATATTAAAGGTGCACAAATAAATATATACA
DNA 2: TGTATATATTTATTTGTGCACCTTTAATATATATAT
B2: GTGCAC_site10263 (dsDNA)
DNA 1: TTTAATTATTAAATGGTGCACTTGAAATATAAAAAT
DNA 2: ATTTTTATATTTCAAGTGCACCATTTAATAATTAAA
B3: GTGCAC_site9853 (dsDNA)
DNA 1: ACTATTTAATATAGGGTGCAACTTTTTCAAGTAAAT
DNA 2: ATTTACTTGAAAAAGTTGCACCCTATATTAAATAGT
B4: GTGCAC_site10574 (dsDNA)
DNA 1: AATTAATGGCTAAAGGTGCACAATATATATATTACA
DNA 2: TGTAATATATATATTGTGCACCTTTAGCCATTAATT
B5: GTGCAC_site9943 (dsDNA)
DNA 1: AATTAATGGTTAAAGGTGCACAATACATATATTACA
DNA 2: TGTAATATATGTATTGTGCACCTTTAACCATTAATT
B6: GTGCAC_site10198 (dsDNA)
DNA 1: TTTTTAACGTATAAGGTGCACTGTATATGGTACTCA
DNA 2: TGAGTACCATATACAGTGCACCTTATACGTTAAAAA
B7: GTGCAC_site10597 (dsDNA)
DNA 1: TGAACTCAACAAAGGGTGCATAACAAAAATAGACGT
DNA 2: ACGTCTATTTTTGTTATGCACCCTTTGTTGAGTTCA
B8: GTGCAC_site9899 (dsDNA)
DNA 1: CTTGTGCTTTATAGGGTGCACATTTTGTTTTGGTAA
DNA 2: TTACCAAAACAAAATGTGCACCCTATAAAGCACAAG
B9: GTGCAC_site9950 (dsDNA)
DNA 1: AAAAAAAAAAAAATGGTGCAACTTTGTTAAAGGAAA
DNA 2: TTTCCTTTAACAAAGTTGCACCATTTTTTTTTTTTT
B10: GTGCAC_site10679 (dsDNA)
DNA 1: AGCATATTATTTTAGGTGCACTTGAAATGTGTTAAC
DNA 2: GTTAACACATTTCAAGTGCACCTAAAATAATATGCT
B11: GTGCAC_site9650 (dsDNA)
DNA 1: CAATTTGGTGTACAGGTGCACATGCCTCACGATAAA
DNA 2: TTTATCGTGAGGCATGTGCACCTGTACACCAAATTG
B12: GTGCAC_site10337 (dsDNA)
DNA 1: GGGATATTTTAAAGGGTGCATATTATTAAAATAATG
DNA 2: CATTATTTTAATAATATGCACCCTTTAAAATATCCC
B13: GTGCAC_site9987 (dsDNA)
DNA 1: ATATCTTATAATACGGTGCACTTGACATGAACAACT
DNA 2: AGTTGTTCATGTCAAGTGCACCGTATTATAAGATAT
B14: GTGCAC_site10727 (dsDNA)
DNA 1: ATAGAAGGCAACTTGGTGCACAAAAAAAAAAATAAT
DNA 2: ATTATTTTTTTTTTTGTGCACCAAGTTGCCTTCTAT
B15: GTGCAC_site10039 (dsDNA)
DNA 1: CAGTAGTTTTTATGGGTGCAAAACATATATATAACA
DNA 2: TGTTATATATATGTTTTGCACCCATAAAAACTACTG
B16: GTGCAC_site9401 (dsDNA)
DNA 1: AAAAAAAAAAAAAAGGTGCATACTTTGAATTAATAT
DNA 2: ATATTAATTCAAAGTATGCACCTTTTTTTTTTTTTT
B17: GTGCAC_site10495 (dsDNA)
DNA 1: ATATATATAATATAGGTGCACTACTTATTTAAAAAA
DNA 2: TTTTTTAAATAAGTAGTGCACCTATATTATATATAT
B18: GTGCAC_site10674 (dsDNA)
DNA 1: AAAAAAAAAAAAAAGGTGCAAATAAATTAACCTTAT
DNA 2: ATAAGGTTAATTTATTTGCACCTTTTTTTTTTTTTT
B19: GTGCAC_site10015 (dsDNA)
DNA 1: TATAATGGTTCTGGTGTGCACCATGACAGAATCAAG
DNA 2: CTTGATTCTGTCATGGTGCACACCAGAACCATTATA
B20: GTGCAC_site9928 (dsDNA)
DNA 1: TTAACCGGTTTATGGGTGCACATTCTTCTTAAATAA
DNA 2: TTATTTAAGAAGAATGTGCACCCATAAACCGGTTAA
B21: GTGCAC_site9754 (dsDNA)
DNA 1: ATATAATATTTTAGAGTGCACCGATAACAATAAATA
DNA 2: TATTTATTGTTATCGGTGCACTCTAAAATATTATAT
B22: GTGCAC_site10229 (dsDNA)
DNA 1: CACATTAATTTTTGGGTGCACTTGGGAAATTTTGGT
DNA 2: ACCAAAATTTCCCAAGTGCACCCAAAAATTAATGTG
B23: GTGCAC_site10518 (dsDNA)
DNA 1: ATATATTTCAAAGGGGTGCAGGCATATTTAAGCAAA
DNA 2: TTTGCTTAAATATGCCTGCACCCCTTTGAAATATAT
B24: GTGCAC_site10223 (dsDNA)
DNA 1: TTAATTATGGACAGGGTGCACATGAATAATAATACC
DNA 2: GGTATTATTATTCATGTGCACCCTGTCCATAATTAA
B25: GTGCAC_site9525 (dsDNA)
DNA 1: CTGCGTTTAATATGCGTGCACCTTGGTTTTATATCT
DNA 2: AGATATAAAACCAAGGTGCACGCATATTAAACGCAG
B26: GTGCAC_site9513 (dsDNA)
DNA 1: TATATATGTATATGTGTGCACCTTATTTCTTTTATT
DNA 2: AATAAAAGAAATAAGGTGCACACATATACATATATA
B27: GTGCAC_site9660 (dsDNA)
DNA 1: CTTTTTTTTTTGGGGGTGCATGCAAGACATATATTT
DNA 2: AAATATATGTCTTGCATGCACCCCCAAAAAAAAAAG
B28: GTGCAC_site10767 (dsDNA)
DNA 1: TGTTTTATTTAGAAGGTGCACATTAATATTAAATAA
DNA 2: TTATTTAATATTAATGTGCACCTTCTAAATAAAACA
B29: GTGCAC_site10641 (dsDNA)
DNA 1: ATATAATAACAAAAGGTGCGCATTAAGACAAAAAAA
DNA 2: TTTTTTTGTCTTAATGCGCACCTTTTGTTATTATAT
B30: GTGCAC_site10264 (dsDNA)
DNA 1: TTATTTATTTATTGGGTGCACTTGATTTAAATATGC
DNA 2: GCATATTTAAATCAAGTGCACCCAATAAATAAATAA
B31: GTGCAC_site10577 (dsDNA)
DNA 1: TTTTTTTTCTATGTGGTGCACATTATTTTTTTTTTT
DNA 2: AAAAAAAAAAATAATGTGCACCACATAGAAAAAAAA
B32: GTGCAC_site10157 (dsDNA)
DNA 1: TTTATTTTCCAAAGGGTGCACATAGTTGAAACGATA
DNA 2: TATCGTTTCAACTATGTGCACCCTTTGGAAAATAAA
B33: GTGCAC_site9733 (dsDNA)
DNA 1: TAAAAATTAAAAAGGGTGCAAAAAAAAAAAAAAAAA
DNA 2: TTTTTTTTTTTTTTTTTGCACCCTTTTTAATTTTTA
B34: GTGCAC_site9617 (dsDNA)
DNA 1: TTTTTTTTTTTTTGTGTGCACCTTATTTTTTTGTAT
DNA 2: ATACAAAAAAATAAGGTGCACACAAAAAAAAAAAAA
B35: GTGCAC_site9881 (dsDNA)
DNA 1: TCCGCATGTACATGGGTGCACATAACACCCATTTAA
DNA 2: TTAAATGGGTGTTATGTGCACCCATGTACATGCGGA
B36: GTGCAC_site10200 (dsDNA)
DNA 1: CTCATTTTTGTACAGGTGCACTTATCGTTACACTAT
DNA 2: ATAGTGTAACGATAAGTGCACCTGTACAAAAATGAG
B37: GTGCAC_site9895 (dsDNA)
DNA 1: ATTGAATTCCAACTGGTGCACCAGTAAGATTGAAAA
DNA 2: TTTTCAATCTTACTGGTGCACCAGTTGGAATTCAAT
B38: GTGCAC_site9503 (dsDNA)
DNA 1: ATCTATTTGTAAAGGGTGCGCATATCAATAAAAAAT
DNA 2: ATTTTTTATTGATATGCGCACCCTTTACAAATAGAT
B39: GTGCAC_site9600 (dsDNA)
DNA 1: AACCTTACACAAGGGGTGCAATATTATTTCGATAAA
DNA 2: TTTATCGAAATAATATTGCACCCCTTGTGTAAGGTT
B40: GTGCAC_site10519 (dsDNA)
DNA 1: CATGCCTTTAAAAAGGTGCAAACATTTTCACAAACA
DNA 2: TGTTTGTGAAAATGTTTGCACCTTTTTAAAGGCATG
B41: GTGCAC_site10454 (dsDNA)
DNA 1: TTTTTAATATATTAGGTGCACAATAATACACTTTAT
DNA 2: ATAAAGTGTATTATTGTGCACCTAATATATTAAAAA

The series concerns the target T1, SIP2 D1. The series is described as follows: gcPBM; about 25 ug protein; PBS, 1% milk, 0.2 mg/ml BSA, salmon testes DNA, 0.03% Triton X-100. The settings on record: tags: N-terminal GST (pGEX-4T-1), kept; label: surface-attached array probe.
As for B1, the binding signal is 11.3 ln median PBM intensity, better of two orientations.

With B2, the binding signal is 11.8 ln median PBM intensity, better of two orientations.

In the case of B3, the binding signal was 11.5 ln median PBM intensity, better of two orientations.

For the molecule B4, the binding signal is 11.7 ln median PBM intensity, better of two orientations.

Consider B5, for which the binding signal was 11.6 ln median PBM intensity, better of two orientations.

Turning to B6, the binding signal was 11.5 ln median PBM intensity, better of two orientations.

On to B7, for which the binding signal was 11.6 ln median PBM intensity, better of two orientations.

With B8, the binding signal is 11.9 ln median PBM intensity, better of two orientations.

B9: the binding signal is 11.6 ln median PBM intensity, better of two orientations.

For the molecule B10, the binding signal was 11.5 ln median PBM intensity, better of two orientations.

Consider B11, for which the binding signal was 11.3 ln median PBM intensity, better of two orientations.

As to B12, the binding signal was 11.8 ln median PBM intensity, better of two orientations.

On to B13, for which the binding signal was 11.9 ln median PBM intensity, better of two orientations.

In the case of B14, the binding signal is 11.4 ln median PBM intensity, better of two orientations.

With B15, the binding signal was 11.3 ln median PBM intensity, better of two orientations.

In the case of B16, the binding signal was 11.7 ln median PBM intensity, better of two orientations.

As to B17, the binding signal was 11.7 ln median PBM intensity, better of two orientations.

Take B18: the binding signal is 11.4 ln median PBM intensity, better of two orientations.

For B19, the binding signal is 11.4 ln median PBM intensity, better of two orientations.

Take B20: the binding signal was 11.9 ln median PBM intensity, better of two orientations.

With B21, the binding signal was 11.4 ln median PBM intensity, better of two orientations.

With B22, the binding signal was 11.6 ln median PBM intensity, better of two orientations.

As to B23, the binding signal is 11.6 ln median PBM intensity, better of two orientations.

Consider B24, for which the binding signal was 11.9 ln median PBM intensity, better of two orientations.

As for B25, the binding signal is 11.3 ln median PBM intensity, better of two orientations.

Consider B26, for which the binding signal was 11.7 ln median PBM intensity, better of two orientations.

As to B27, the binding signal was 11.5 ln median PBM intensity, better of two orientations.

Turning to B28, the binding signal is 11.8 ln median PBM intensity, better of two orientations.

With B29, the binding signal was 11.5 ln median PBM intensity, better of two orientations.

Regarding B30, the binding signal is 11.8 ln median PBM intensity, better of two orientations.

Take B31: the binding signal was 11.4 ln median PBM intensity, better of two orientations.

As for B32, the binding signal was 11.9 ln median PBM intensity, better of two orientations.

Take B33: the binding signal was 11.6 ln median PBM intensity, better of two orientations.

As to B34, the binding signal was 11.8 ln median PBM intensity, better of two orientations.

Regarding B35, the binding signal was 11.6 ln median PBM intensity, better of two orientations.

As to B36, the binding signal was 11.5 ln median PBM intensity, better of two orientations.

In the case of B37, the binding signal is 11.6 ln median PBM intensity, better of two orientations.

For the molecule B38, the binding signal is 11.6 ln median PBM intensity, better of two orientations.

With B39, the binding signal is 11.5 ln median PBM intensity, better of two orientations.

On to B40, for which the binding signal was 11.4 ln median PBM intensity, better of two orientations.

With B41, the binding signal is 11.3 ln median PBM intensity, better of two orientations.
